Experimental data from patent US20250049939A1, “NOVEL FLT3 ANTIBODIES AND ANTIBODY-DRUG-CONJUGATES BASED THEREON, THERAPEUTIC METHODS AND USES THEREOF IN COMBINATION WITH TYROSINE KINASE INHIBITORS” (TUBULIS GmbH, priority 2021, published 2025).

Columns and labels:
[1] = test system: ITD mutant human FLT3 (hFLT3ITD); assay: Cell surface binding to Ba/F3 hFLT3ITD, flow cytometry
Description: FIG. 1: Evaluation of epitope specificity and internalization capability of anti-FLT3 monoclonal antibodies. (A) Affinity of seven anti-FLT3 monoclonal antibody (mab) clones to recombinant human FLT3 measured in enzyme-linked immunosorbent assay (ELISA) normalized to the binding of the antibodies to BSA control. […] (B) Schematic FLT3 receptor. Black arrows indicate common mutations and blue arrows indicate the three identified epitopes of seven anti-FLT3 antibodies analyzed in linear epitope mapping by PEPperPRINT. Figure was created with BioRender.com. (C) Binding and temperature induced internalization of anti-FLT3 antibodies in Ba/F3 cells expressing human wildtype FLT3. […] Remaining surface-bound antibody was detected in flow cytometry. […] MFI=mean fluorescence intensity. […] (D) Cell surface binding of 20D9 mab or control human IgG1 antibody to Ba/F3 cells stably expressing pMIY (Ba/F3-pMIY) empty vector (ev), human wildtype (hFLT3 wt) or ITD mutant human FLT3 (hFLT3ITD) was measured in flow cytometry. […] (E) Temperature induced internalization of 4B12 mab in MOLM-13 (FLT3 positive) cells after 30 min incubation at 37° C. compared to 4° C. and HL-60 (FLT3 negative) after 37° C. incubation assessed in immunofluorescence staining. […] (G) Cell surface binding of 20D9 mab or control hIgG1 antibody to Ba/F3-PMIY ev, hFLT3 wt or epitope mutant FLT3 (hFLT3/S50P/P54R) measured in flow cytometry. […]

[2] = test system: FLT3 mutants FLT3/NPOS, FLT3/D835Y, FLT3/D835V, FLT3/NPOS D835Y, FLT3/NPOS N676K, FLT3/NPOS F6911, FLT3/NPOS F691L; assay: Cell surface binding to Ba/F3 FLT3ITD and TKD mutants; design: species or system human
Procedure: For FLT3 expression analysis, cells were stained on ice with primary mouse anti-FLT3-AF647 antibodies for 30 min. For antibody binding studies, cells were stained on ice with chimeric (20D9) or humanized anti-FLT3 antibodies (in house) or IgG1 control with or without Leu234Ala/Leu235Ala (LALA)-mutation in the Fc region and secondary antibody goat F(ab′)2 Anti-Human IgG-AF647 (2042-31) purchased from Southern Biotech for 30 min, respectively. Binding and expression were subsequently measured at the flow cytometer (BD FACSCanto II) and the results were evaluated with FlowJo version 10.8.1.

[3] = test system: PDX AML cells with FLT3-ITD mutation; assay: Ex vivo treatment of patient derived xenograft (PDX) samples; format: cell-based, human

B1: 20D9: chimeric (rat variable regions, human IgG1) anti-FLT3 monoclonal antibody; VH SEQ ID NO: 5, VL SEQ ID NO: 6 (antibody, V domains shown)
VH: DVMLVESGGGLVQPGRSLKLSCVASGFTFNNYWMTWIRQAPGKGLEWIASITKTGGGTYYPDSVKGRFTISRDNAKSTLYLQMNSLRSEDTATYYCTTLQQLGVMDAWGQGASVTVSSA
VL: DVQMTQSPSVLSASVGDRITLNCKASQNINKELNWYQQKLGEAPKLLIYNTNNLQTGIPSRFSGSGSGTDYTLTISSLQPEDVATYFCFQHKSWPLTFGSGTKLEIKR
modifications: Clone 20D9, heavy chain variable region without a signal seqeunce; Clone 20D9, light chain variable region without a signal seqeunce
With B1 as the molecule, how does the “Binding to Ba/F3 cell lines expressing FLT3-ITD” value [1] read?
The value was “specific binding”.

What about the “Binding to FLT3 with common mutations” value [2] of the same molecule?
Its value is “also binds to FLT3 with common mutations”.

And the “Ex vivo sensitivity of PDX cells” value [3]?
Its value is “remained ineffective”.
